assay: yeast display, Sf9 membrane polyspecificity reagent, FACS + sequencing; frameworks hold sequencing errors
In short: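 Nanobodies came from a synthetic yeast display library in Saccharomyces cerevisiae BJ5465, induced with galactose for 36–48 hours and stained for 1 hour at 4 °C with 10% biotinylated, detergent-solubilized Sf9 membrane reagent. Cells were enriched on streptavidin microbeads and then FACS-sorted, with low and high (top ~1%) gates set on anti-HA fluorescence for expression and streptavidin fluorescence for reagent binding. Each polyreactivity label reflects the gate a clone came from. Genes were amplified by colony PCR, sequenced by MiSeq 2 × 250 and filtered by CDR length.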

Sequence	polyreactivity (PSR sort gate)
QVQLVESGGGLVQAGGSLRLSCAASGSIIARYAMGWYRQSPGKERELVAAITCSATSTYYADSVKGRFTISRDYAKNTVYLQLNSLKPEDTAVYYWNAGASYFLVISQSRRDYWGQGTQVTVSS	low polyreactivity
QVQLVESGGGLVQAGGSLRLSCAASGSIIDYNVMGWYRQAPGKEREFVAGISSTGGSTYYADSVKGRFSNSRDNAKHTVYLQMNSLKPEDTAVYYCAAYWNRAFRLDYWGQGTQVTVSS	high polyreactivity
QVQLVESGGGLVQAGGSLRLSCAASGSIIDYYAMGWYRQAPGKERELVADITVTGDGTYYADSVKGRFTISRDNAKNTVYLQMNSLKPEDTAVYYCAADFWLVSFQWDFEYDYWGQGTQVTVSS	low polyreactivity
QVQLVESGGGLVQAGGSLRLSCAASGSIIFNNAMGWYRQAPGKERELVAAITTGGSTYYADSVKGRFTISRDNAKNTVYLQMNSLKPEDTAVYYCAAVVVYPYRLGYDYWGQGTQVTVSS	low polyreactivity
QVQLVESGGGLVQAGGSLRLSCAASGSIIGFYAMGWYRQAPGKERELVARISKRGGITYYADSVKGRFTISRDNAKNTVDLQMNSLKPEDTAVYYCAVDRRVLWYHMDYWGQGTQVTLSS	high polyreactivity
QVQLVESGGGLVQAGGSLRLSCAASGSIIGIYDMGWYRQAPGKERELVAAISWSGGSTYYADSVKGRFTISRDNAKNTVYLQMNSLKPEDTAFYYCAARGHYQYYWGQGTQVTVSS	low polyreactivity
QVQLVESGGGLVQAGGSLRLSCAASGSIIGRYAMGWYRQAPGKERELVAAISTGGGRTYYADSVKGRFTISRDSAKNTVYFQLNSLKPEDTAVYYCNAGPYKGWGRMDYWGQGTQVNVSS	high polyreactivity
QVQLVESGGGLVQAGGSLRLSCAASGSIIGRYTMGWYRQAPGKERELVAAISRSGGSTYYADSVKGRFTISRDNAKNTVYLQMNSLKPEDTAVYYCAKRTYTPRGERLYSSYDYWGQGTQVTVSS	high polyreactivity
QVQLVESGGGLVQAGGSLRLSCAASGSIIGSNAMGWYRQAPGKERELVAAISRSGTRTYYADSVKGRFTISRDNAKNTVYLQMNSLKPEDTAVYYCATRGGGYWGQGTQVTVSS	high polyreactivity
QVQLVESGGGLVQAGGSLRLSCAASGSIIGTNVMGWYRQAPGKERELVASISYRDGTTYYADSVKGRFTISRDNAKNTVYLQMNSLKPEDTAVYYCAVANYYSYYWGQGTQVTVSS	low polyreactivity
QVQLVESGGGLVQAGGSLRLSCAASGSIIGYYAMGWYRQAPGKERELVAAISRTGGSTYYADSVKGRFTISRDNAKNTVFLPMNSLKPEDTAVYYCATRTYARHDYWGQGTQGTVSS	high polyreactivity
QVQLVESGGGLVQAGGSLRLSCAASGSIILLYAMGWYRQAPGKERELVAAISRSGDSTHYADSVKGRFTISRDNAKNTVYLQMNSLKPEDTAVYYCAADGYHPYGGLYDYCGQGTQVTVSS	low polyreactivity
QVQLVESGGGLVQAGGSLRLSCAASGSIIPRNVMGWYRQAPGKERDLVAAISSSGGSTSYADSVKGRFTISRDNAKNTVYLQMNSLKPEDTAVYYCNAPWQRYSAPWGQGYNYWGQGTQVTVSS	high polyreactivity
QVQLVESGGGLVQAGGSLRLSCAASGSIIQVYAMGWYRQAPGKERELVASITRTGGSTYYADSVKGSFTISRDNAKNTVYLQMNSLKPEDTAVYYCAARRVTSPFGSDSWGQGTQVTVSS	low polyreactivity
QVQLVESGGGLVQAGGSLRLSCAASGSIIRDNAMGWYRQAPGKERELVAAISVSGGRTYYADSVKGRFTISRDNAKNTVYLQMNSLKPEDTAVYYCAALRRPSYPGRFAELDYWGQGTQVTVSS	high polyreactivity
QVQLVESGGGLVQAGGSLRLSCAASGSIIRINAMGWYRQAPGKERELVAAISTRSGRTYYADSVKGRFTISRDNAKNTVYLQLNSLKPEDTAFYYCARYRTQASGYGGYHYWGQGTQVTVSS	high polyreactivity

Sequence	polyreactivity (PSR sort gate)
QVQLVESGGGLVQAGGSLRLSCAASGSIISGYAMGWYRQAPGQERELVAAISRSGGRTYYADSVKGRFTISRDNAKNTVYLQMNSLKPEETAVYYCAAKIYIPRGYDYWGQGTQVTVSS	high polyreactivity
QVQLVESGGGLVQAGGSLRLSCAASGSIISGYAMGWYRQAPGTERELVAAISSSGGRTYYADSVKGRFTISRDNAKNTVYLQMNSLKPEDTAVYYCAAAYTITYDYWGQGTQVTVSS	high polyreactivity
QVQLVESGGGLVQAGGSLRLSCAASGSIISRNAMGWYRQAPGKERELVATIRYRGGSTYYADSVKGRFTISRDNAKNTVYLQMNSLKPEDTAVYYCAARRSHPPDPRFRYGYWGQGTQVTVSS	high polyreactivity
QVQLVESGGGLVQAGGSLRLSCAASGSIISYYAMGWYRQAPGKEWELVAAISWSGGSTYYADSVKGRFTISRDNAKNTVYLQRNSLTPEDTAVYYCAKYAYPRSRYTPYGSYDYWGQGTQVTVSS	high polyreactivity
QVQLVESGGGLVQAGGSLRLSCAASGSIITWYAMGWYRQAPGKERELVAAISNSDSSTYYADSVKGRFTISRDNAKNTVYLQMNILKPEDTAVYYCAAEYGLAWYNFEHWGQGTQVTVSS	high polyreactivity
QVQLVESGGGLVQAGGSLRLSCAASGSIIVDNAMGWYRQAHGKERELVAAITDSGGRTYYADSVKGRYTISRDNAKNTVYLQMNSLKPEDTAVYYCNKQYIYTGRYSDGFDYCGQGTQVTVSS	low polyreactivity
QVQLVESGGGLVQAGGSLRLSCAASGSIIVNYDMGWYRQAPGKERELVAAISSGGSTKYADSVKGRFTISRDNAKNTVYLQMNSLKPEDTAVYYCAAGKHVTFSYEYRMDYWGQGTQVTVSS	low polyreactivity
QVQLVESGGGLVQAGGSLRLSCAASGSIIVRNALGWYRQEPGTERELVAAISWGGGRTYYADSVKGRFTISRDNAKNTVYLQMNSLKPEDTAVYYCAAVHRAVQMGYWGQGTQVTVSS	high polyreactivity
QVQLVESGGGLVQAGGSLRLSCAASGSIIVRYAMGWYRQAPGKERALVATITFRDTSTYYADSVKGRFTITRDNAKNTVYLQMNSLKPEDTAVYYCAAVRADLWDIARYDYWGQGTQVTVSS	low polyreactivity
QVQLVESGGGLVQAGGSLRLSCAASGSIIYFNAMGWYRQAPGKERELVAAITRSGGSTYYADSVKGRFTISRDNAKNTVYLQMNSLKPEDTAVYYCAAEVWRTYSVEYDYWGQGTQVTVSS	high polyreactivity
QVQLVESGGGLVQAGGSLRLSCAASGSIIYHYAMGWYRQAPGKERELVAAITSSGGSTYYADSVKGRFTISRDNAKNTVYLQMNSLKPEDTEVYYCAVESRGRAGGNYWGQGTQVTVSS	low polyreactivity
QVQLVESGGGLVQAGGSLRLSCAASGSIIYLYAMGWYRQAPGKERELVAAINDDAGSTYYADSVKGRFTISRDNAKNTVYLQMNSLKPEDTAVYYCNAGSRSTEYDYWGQGTQVTVSS	low polyreactivity
QVQLVESGGGLVQAGGSLRLSCAASGSILAIYAMGWYRQAPGKERELVAAITWSGDSTYYADSVKGRFTISRDNAKNTVYLQMNSLKPEDTAVYYCAAGPGYWYEHEYWGQGTQVTVSS	low polyreactivity
QVQLVESGGGLVQAGGSLRLSCAASGSILALYTMGWYRQAPGKEREFVATITSSDGSTYYADSVKGRFTISRDNAKNTVYLQMNSLKPEDTAVYYCNARGSVYYLKFDYWGQGTQVTVSS	low polyreactivity
QVQLVESGGGLVQAGGSLRLSCAASGSILAYNAMGWYRQAPGKEREFVAAITGGVGSTYYADSVKGRFTISRDNAKNTVYLQMNSLKPEDTAVYYCAKRTYHEYNNQFVKYYYWGQGTQVTVSS	high polyreactivity
QVQLVESGGGLVQAGGSLRLSCAASGSILAYNAMGWYRQAPGKERELVASISKSGSSTYADSVKGRFTISRDNAKNTVYLQMNSLNPEDTAVYYCNARYYFSYYAFDYWGQGTQVTVSS	low polyreactivity
